From article PMC9267027
Several values for one entry are separate records, joined by “and”; a condition that tells them apart may be missing. Equal entries are not always repeated.

Target: Amy117, neopullulanase (NPase) from B. pseudofirmus 703 (B. pseudofirmus 703)
Test: AUC; sedimentation velocity, 50 mM Na2HPO4-NaH2PO4 buffer pH 7.0, 20 °C, 38,000 rpm, absorbance at 280 nm, c(s) model in SEDFIT; oligomeric state

percent as a tetramer: 3.3%
percent in the dimerized form: 68.7%
percent in the monomeric form: 24.3%
stoichiometry N: 2 and 4
Substance: Amy117, neopullulanase (NPase) from B. pseudofirmus 703 (enzyme)
